From patent publication US20130316404A1

Molecular target: IL-10 receptor (IL-10R) on mouse splenocytes (mouse) (UniProt Q61727)
Experiment: cell-based or functional assay

Chain of UniProt Q61727 (Q61727 17-575): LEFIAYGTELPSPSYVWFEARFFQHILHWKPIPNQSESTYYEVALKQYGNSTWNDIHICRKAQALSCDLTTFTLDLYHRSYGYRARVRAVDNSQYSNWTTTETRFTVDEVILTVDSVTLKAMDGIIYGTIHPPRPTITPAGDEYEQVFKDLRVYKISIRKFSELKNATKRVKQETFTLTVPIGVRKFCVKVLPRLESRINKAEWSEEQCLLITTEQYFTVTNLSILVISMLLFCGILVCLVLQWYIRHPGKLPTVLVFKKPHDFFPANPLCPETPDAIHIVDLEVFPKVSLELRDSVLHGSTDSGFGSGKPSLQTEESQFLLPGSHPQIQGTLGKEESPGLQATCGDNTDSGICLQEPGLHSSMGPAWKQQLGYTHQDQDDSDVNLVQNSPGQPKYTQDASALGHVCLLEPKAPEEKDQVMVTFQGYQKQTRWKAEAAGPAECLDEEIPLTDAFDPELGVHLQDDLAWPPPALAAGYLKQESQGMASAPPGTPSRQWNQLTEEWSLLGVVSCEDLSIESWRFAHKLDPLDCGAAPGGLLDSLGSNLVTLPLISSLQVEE

STAT3 phosphorylation in mouse splenocytes (Western blot), concentration giving equal signal [ng/mL] | Substance
10 | stabilized recombinant IL-10 dimer (two wildtype murine IL-10 monomers joined C-terminus to N-terminus by a 7 amino acid peptide linker, one continuous polypeptide) (from UniProt P18893 19-178) (ligand)
100 | recombinant wildtype mouse IL-10 expressed in human HEK293 cells (from UniProt P18893 19-178) (ligand)
